Laboratory results taken from US20220089757A1 (ADAGENE PTE, published 2022).
Changes are numbered by the printed parent chain.

T1: human CD137L peptide 02 (human, biotinylated (position not given))
T1 construct: Synthesized as biotinylated peptide; identical to peptide 01 except that it lacks the C-terminal 5 residues
T1 peptide: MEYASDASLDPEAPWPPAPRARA

T2: human CD137L peptide 01 (human, biotinylated (position not given))
T2 construct: Synthesized as biotinylated peptide
T2 peptide: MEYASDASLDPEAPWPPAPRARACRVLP

B1: TY23561 (antibody, V domains shown)
VH: EVQLVESGGGLVQPGGSLRLSCAASGFSLSTSGVGVSWIRQAPGKGLEWLALIDWAGDKYYSPSLKSRLTISRDNSKNTLYLQLNSLRAEDTAVYYCARYGYSSYALDYWGQGTLVTVSS
VL: DIQLTQSPSSLSASVGDRVTITCRASQSVRGSYLAWYQQKPGKAPKLLIYAASTLQSGVPSRFSGSGSGTDFTLTISSLQPEDFATYYCQQYSSLWTFGQGTKVEIKR
notes: Tested as IgG with Fc from mouse IgG2a, expressed in mammalian cells
B2: TY23557 (antibody, V domains shown)
VH: EVQLVESGGGLVQPGGSLRLSCAASGFTFTGYGIHWVRQAPGKGLEWVSAISGSGGSTYYADSVKGRFTISRDNSKNTLYLQLNSLRAEDTAVYYCARGAYYGGSYYFDYWGQGTLVTVSS
VL: DIQLTQSPSSLSASVGDRVTITCRASESITSSYLAWYQQKPGKAPKLLIYDASSLESGVPSRFSGSGSGTDFTLTISSLQPEDFATYYCFQGSHYPPTFGQGTKVEIKR
notes: as for B1
B3: TY23562 (antibody, V domains shown)
VH: EVQLVESGGGLVQPGGSLRLSCAASGYSISSGYHWDWIRQAPGKGLEWIGRINPNRGSTKYAQKFQGRVTISRDNSKNTLYLQLNSLRAEDTAVYYCAREFGAYWGQGTLVTVSS
VL: DIQLTQSPSSLSASVGDRVTITCRASQSVDFVGKSFLDWYQQKPGKAPKLLIYDASNLETGVPSRFSGSGSGTDFTLTISSLQPEDFATYYCQQRASWPLTFGQGTKVEIKR
notes: as for B1
B4: TY23558 (antibody, V domains shown)
VH: EVQLVESGGGLVQPGGSLRLSCAASGYSISSGHYWSWIRQAPGKGLEWIGEIYHSGSTYYSPSLKSRVTISRDNSKNTLYLQLNSLRAEDTAVYYCAREGSDSYGGPDPFDIWGQGTLVTVSS
VL: DIQLTQSPSSLSASVGDRVTITCRARSTVSFPYLHWYQQKPGKAPKLLIYDASNLETGVPSRFSGSGSGTDFTLTISSLQPEDFATYYCQQSLEDPFTFGQGTKVEIKR
notes: Tested as IgG with Fc from mouse IgG2a, expressed in mammalian cells; also called TV23558
B5: TY23556 (antibody, V domains shown)
VH: EVQLVESGGGLVQPGGSLRLSCAASGYSITSGHYWGWIRQAPGKGLEWIGEIYHSGSTYYSPSLKSRVTISRDNSKNTLYLQLNSLRAEDTAVYYCTRGRYGLDYWGQGTLVTVSS
VL: DIQLTQSPSSLSASVGDRVTITCSASSSVGYVQWYQQKPGKAPKLLIYDASNRATGIPSRFSGSGSGTDFTLTISSLQPEDFATYYCQQYGSAPITFGQGTKVEIKR
notes: as for B1
B6: TY23559 (antibody, V domains shown)
VH: B5 VH with T30S, G36A
VL: B5 VL with G30S, G91S, S92T, A93N, I95L
notes: as for B1
B7: TY23555 (antibody, V domains shown)
VH: EVQLVESGGGLVQPGGSLRLSCAASGYSISSGHYWAWIRQAPGKGLEWVSVISGSGGSTYYADSVKGRFTISRDNSKNTLYLQLNSLRAEDTAVYYCARYRSGAFDYWGQGTLVTVSS
VL: DIQLTQSPSSLSASVGDRVTITCRASQSISRWLAWYQQKPGKAPKLLIYAASSLQSGVPSRFSGSGSGTDFTLTISSLQPEDFATYYCQQAYSIWTFGQGTKVEIKR
notes: as for B1
B8: TY23554 (antibody, V domains shown)
VH: EVQLVESGGGLVQPGGSLRLSCAASGYSITSGYYWAWIRQAPGKGLEWIGIINPNRGSTKYAQKFQGRVTISRDNSKNTLYLQLNSLRAEDTAVYYCARDGWALSGGYYYYYGLDVWGQGTLVTVSS
VL: DIQLTQSPSSLSASVGDRVTITCRASQDISSDLAWYQQKPGKAPKLLIYDASNLETGVPSRFSGSGSGTDFTLTISSLQPEDFATYYCQQYDAWPSTFGQGTKVEIKR
notes: as for B1

Assays:
human CD137L peptide 02 = biological target: T1, human CD137L peptide 02; assay: ELISA, IgG on CD137L peptide 02
human CD137L peptide 01 = biological target: T2, human CD137L peptide 01; assay: ELISA, IgG on CD137L peptide 01
full length human CD137L = biological target: T3, full length human CD137L (human, UniProt P41273 1-254); assay: immunofluorescence microscopy on fixed and permeabilized CHO-S-CD137L cells
T3 construct: also called CD137 ligand; human CD137 ligand
Experimental: FIGS. 3A-3C show immunofluorescence staining of TY23557, TY23561, the Reference-1 and isotype control antibodies at the indicated concentrations. The positive control CHO-S-CD137L cell line and the negative control CHO-S cells were washed, fixed and permabilized in a similar fashion as in immunohistochemistry (IHC), followed by analysis through fluorescence microscopy. (FIG. 3A) CHO-S-CD137L cells were stained with TY23557 or TY23561 (0.4 nM or 40 nM). (FIG. 3B) CHO-S-CD137L cells were stained with Reference-1 (6.66 nM) or negative isotype control (40 nM). (FIG. 3C) CHO-S cells were stained with TY23557 (40 nM), TY23561 (40 nM), negative isotype control (40 nM) or Reference-1 (6.66 nM).
The specificity of the antibodies were further confirmed with immunofluorescence analysis. To that end, CHO-S and CHO-S-CD137L cells were cultured on cover slides overnight. Cells were washed with DPBS followed by fixing and permeabilizing with 2% (v/v) paraformaldehyde and 0.1% Triton X 100. Then the cells were incubated with TY23557, TY23561, negative isotype control and Reference-1 (positive control) for one hour at room temperature. After washing by 0.05% PBST, PE Goat anti-mouse IgG Fc were added and staining for one hour at room temperature. The samples were analyzed with fluorescent microscopy.

Row | Binder | EC50 (human CD137L peptide 02) | EC50 (human CD137L peptide 01) | binding result (full length human CD137L)
1 | B1 | 50 nM | 166 nM | –
2 | B2 | 6.77 nM | 10.1 nM | binds
3 | B3 | 0.74 nM | 2.04 nM | –
4 | B4 | 1.51 nM | 3.84 nM | –
5 | B5 | 0.48 nM | 0.66 nM | –
6 | B6 | 0.65 nM | 1.03 nM | –
7 | B7 | 12.3 nM | 28.5 nM | –
8 | B8 | 1.59 nM | 3.13 nM | –
